Measurements reported in paper PMC5899921 (Cytoskeleton (Hoboken, N.J.), 2017).

Experiments:
[1] = biological target: the molecule itself; assay: electron microscopy
[2] = biological target: the molecule itself; assay: fluorescence correlation spectroscopy with photon counting histogram analysis

B1: Myo2p, heavy chain of fission yeast myosin-II Myo2, in purified "Phosphorylated Myo2" (natural protein, S. pombe, UniProt Q9USI6 1-1526, looked up)
chain: MTEVISNKITAKDGATSLKDIDDKRWVWISDPETAFTKAWIKEDLPDKKYVVRYNNSRDEKIVGEDEIDPVNPAKFDRVNDMAELTYLNEPAVTYNLEQRYLSDQIYTYSGLFLVAVNPYCGLPIYTKDIIQLYKDKTQERKLPHVFAIADLAYNNLLENKENQSILVTGESGAGKTENTKRIIQYLAAIASSTTVGSSQVEEQIIKTNPVLESFGNARTVRNNNSSRFGKFIKVEFSLSGEISNAAIEWYLLEKSRVVHQNEFERNYHVFYQLLSGADTALKNKLLLTDNCNDYRYLKDSVHIIDGVDDKEEFKTLLAAFKTLGFDDKENFDLFNILSIILHMGNIDVGADRSGIARLLNPDEIDKLCHLLGVSPELFSQNLVRPRIKAGHEWVISARSQTQVISSIEALAKAIYERNFGWLVKRLNTSLNHSNAQSYFIGILDIAGFEIFEKNSFEQLCINYTNEKLQQFFNHHMFVLEQEEYMKEEIVWDFIDFGHDLQPTIDLIEKANPIGILSCLDEECVMPKATDATFTSKLDALWRNKSLKYKPFKFADQGFILTHYAADVPYSTEGWLEKNTDPLNENVAKLLAQSTNKHVATLFSDYQETETKTVRGRTKKGLFRTVAQRHKEQLNQLMNQFNSTQPHFIRCIVPNEEKKMHTFNRPLVLGQLRCNGVLEGIRITRAGFPNRLPFNDFRVRYEIMAHLPTGTYVESRRASVMILEELKIDEASYRIGVSKIFFKAGVLAELEERRVATLQRLMTMLQTRIRGFLQRKIFQKRLKDIQAIKLLQANLQVYNEFRTFPWAKLFFNLRPLLSSTQNDKQLKKRDAEIIELKYELKKQQNSKSEVERDLVETNNSLTAVENLLTTERAIALDKEEILRRTQERLANIEDSFSETKQQNENLQRESASLKQINNELESELLEKTSKVETLLSEQNELKEKLSLEEKDLLDTKGELESLRENNATVLSEKAEFNEQCKSLQETIVTKDAELDKLTKYISDYKTEIQEMRLTNQKMNEKSIQQEGSLSESLKRVKKLERENSTLISDVSILKQQKEELSVLKGVQELTINNLEEKVNYLEADVKQLPKLKKELESLNDKDQLYQLQATKNKELEAKVKECLNNIKSLTKELENKEEKCQNLSDASLKYIELQEIHENLLLKVSDLENYKKKYEGLQLDLEGLKDVDTNFQELSKKHRDLTFNHESLLRQSASYKEKLSLASSENKDLSNKVSSLTKQVNELSPKASKVPELERKITNLMHEYSQLGKTFEDEKRKALIASRDNEELRSLKSELESKRKLEVEYQKVLEEVKTTRSLRSEVTLLRNKVADHESIRSKLSEVEMKLVDTRKELNSALDSCKKREAEIHRLKEHRPSGKENNIPAVKTTEPVLKNIPQRKTIFDLQQRNANQALYENLKRDYDRLNLEKHNLEKQVNELKGAEVSPQPTGQSLQHVNLAHAIELKALKDQINSEKAKMFSVQVQYEKREQELQKRIASLEKVNKDSLIDVRALRDRIASLEDELRAA
modifications: phosphoserine at 1444 (largely phosphorylated, LC/MS/MS)
[1]
  stoichiometry N: 2

B2: mEGFP-Myo2 (Myo2 heavy chain with an N-terminal mEGFP tag) (natural protein, S. pombe, UniProt Q9USI6 1-1526, looked up)
chain: B1 chain
[2]
  stoichiometry N: 2
